{"source": "paper PMC10781750", "about": "“Structural basis of antiphage immunity generated by a prokaryotic Argonaute-associated SPARSA system” (Nature Communications, 2024)", "binders": {"B1": {"name": "pAgo (short prokaryotic Argonaute of the SPARSA system from Geobacter sulfurreducens) (natural protein)", "chain": "not shown", "notes": "short pAgo of Geobacter sulfurreducens, NP_952414.1; MID domain residues 1-218, PIWI domain residues 219-473; no tag of its own is described; also called short pAgo; source: E. coli BL21(DE3), coexpressed with GsSir2, purified (Ni-NTA, Superdex 200 SEC)"}}, "biological_target": "T1, GsSir2 (Sir2-APAZ protein of the SPARSA system from Geobacter sulfurreducens) (Geobacter sulfurreducens, UniProt Q74DF6 1-586)", "T1 construct": "GsSir2 of Geobacter sulfurreducens, NP_952413.1; That the His tag sits on GsSir2, the first gene of Sir2-RBS-pAgo, is surmised; source: E. coli BL21(DE3), coexpressed with pAgo, purified (Ni-NTA, Superdex 200 SEC)", "T1 sequence": "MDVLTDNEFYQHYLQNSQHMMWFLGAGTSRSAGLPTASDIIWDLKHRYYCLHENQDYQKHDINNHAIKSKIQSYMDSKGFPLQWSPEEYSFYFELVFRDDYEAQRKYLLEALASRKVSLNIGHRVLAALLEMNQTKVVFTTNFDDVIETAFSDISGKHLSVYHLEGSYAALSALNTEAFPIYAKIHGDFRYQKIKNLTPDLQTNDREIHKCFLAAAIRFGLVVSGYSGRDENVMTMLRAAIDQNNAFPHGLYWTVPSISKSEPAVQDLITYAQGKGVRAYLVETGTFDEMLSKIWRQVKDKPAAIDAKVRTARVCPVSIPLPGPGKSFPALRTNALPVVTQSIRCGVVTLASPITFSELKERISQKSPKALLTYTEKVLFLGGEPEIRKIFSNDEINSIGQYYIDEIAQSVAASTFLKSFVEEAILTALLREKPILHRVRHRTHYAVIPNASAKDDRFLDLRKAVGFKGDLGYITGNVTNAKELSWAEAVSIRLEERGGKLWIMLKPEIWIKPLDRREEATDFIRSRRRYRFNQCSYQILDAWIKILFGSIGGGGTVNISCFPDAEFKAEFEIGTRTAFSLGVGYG", "experiment": "cryo-EM structure; SPARSA heterodimer (GsSir2 + pAgo) coexpressed and co-purified, endogenous NAD+ bound, no nucleic acids; 2 mg/mL; 3.6 Å", "settings": "both partners purified", "data": [{"binder": "B1", "values": [{"measurement": "stoichiometry N", "result": 1}]}]}
